In article PMC11359734, “Two enzymes contribute to citrate production in the mitochondrion of Toxoplasma gondii” (The Journal of Biological Chemistry, 2024):

B1: TgCS1 (Toxoplasma gondii) (protein)
chain: SARSVCGGLSNAEARAAVEAALDALAEKVQEAAEPKRELLKTLRKEHGTVVISEATLSTVCGGMRGLTAILTETSTLHAEKGILYRGLTINECLAKLPRMHKEEYPAVEGLIWFLMTGSIPTVNEVELLSNALYALSLSSASSSPSAPFIPPHVGKVLDAVPPSTHPMTQLVMAAAALQPTSELAQAYRHKTVSRHDLWKPALADALSLIAKNAVMAARIFRRSFRDGQEIDPAANFGHMMGFNSKEHQELFRLYLFLHADHEGGNVSAHAAHVVGSALSDPFLAFSAGMAGLAGPLHGLANQECLNWLRDVHCKLNGAAPTRENVKKIAEDTLASGRVIPGYGHAVLRVTDPRFTAQREFALKYLKDDELFQLLNVAYNTIPDVLLATGKVKNPYPNVDCHSGVLLQHFGITEADFYTVLFGVSRAIGIACQYVWDRILGLPIERPKSTTLDLLKAACVERKGN
notes: residues 95-559 (N-terminal part removed), His-tagged fusion from pESUMO vector, expressed in E. coli Transetta (DE3), Ni2+ column
B2: TgPrpC (Toxoplasma gondii) (protein)
chain: QSGVHVPTAPSDCAFSPDWRSVCCSQTFSAVSTTTLERQITKENSKNGIECLNAESENCFGFALLLRHRCGLHSGSVDPPLCSLTRRKPTWQRQTTAFLSSTMARQPLETSYEQRKDSEFSPGLEGVVAGESAISSVGPASLAGLTYRGYRIDDLTEKATFEEVVFLLLHDRLPTKQELDAQHQELVLARRLPPSLKACLEYFPKNSHPMDVVRTGCSMMGMLEQENAPPDQQAKIGLRLIGMYSSMLLYWYHYAHHGIRICEETDPADSVAAHFLKLLNQHSSGPHPLEVKAVDISLILYAEHDFNASTFAARVTAATRSDIYSAICSAIGTLKGPLHGGANEAAIMFLRKLRDMQQADQELESIWRHHERVMGFGHRLYKEGDPRSHIMMKVALDLAQNAPKKDPNLVQIAQHIEERMEKEKHLPANVDFPCALAYHQCGIPTDLYTPLFVLARTAGWTAHIMEQRANNRLIRPVSHYVGPPVRPFPSFEEREKLANPSEQSRSR
notes: residues 113-619 (N-terminal part removed), His-tagged fusion from pESUMO vector, expressed in E. coli Transetta (DE3), Ni2+ column

Assays:
[1] = substrate: CC(=O)SCCNC(=O)CCNC(=O)[C@H](O)C(C)(C)COP(=O)(O)OP(=O)(O)OC[C@H]1O[C@@H](n2cnc3c(N)ncnc32)[C@H](O)[C@@H]1OP(=O)(O)O; experiment: citrate synthase kit, OD412, 96-well plate; type: biochemical, Toxoplasma gondii; settings: co-substrate oxaloacetate
[2] = substrate: O=C(O)CC(=O)C(=O)O; experiment: citrate synthase kit, OD412, 96-well plate; type: biochemical, Toxoplasma gondii; settings: co-substrate acetyl-CoA

| Protein | Km [1] [µM] | Km [2] [µM] |
| --- | --- | --- |
| B1 | 0.4693 | 1.423 |
| B2 | 1.169 | 1.661 |
